One protein from PMC9823235 (The Journal of Biological Chemistry, 2022) can be followed below.

This series deals with the molecule itself. Description: cryo-EM structure.

B1: B subunit of Stx2a ([change]), pentameric (natural protein)
chain: ADCAKGKIEFSKYNEDDTFTVKVDGKEYWTSRWNLQPLLQSAQLTGMTVTIKSSTCESGSGFAEVQFNND
For B1, the “stoichiometry N” value turned out to be 5.
